Abundance fitness data for 38 variants are collected here from the Human Domainome abundance scans (Beltran et al. 2025).

± gives the uncertainty stated by the source.

B1: POU domain, class 4, transcription factor 3, residues 185 to 256; numbered along this chain, Q15319 (parent)
chain: RELEAFAERFKQRRIKLGVTQADVGAALANLKIPGVGSLSQSTICRFESLTLSHNNMIALKPVLQAWLEEAE

Variants of B1 are the subject of this series. Nature of the series: abundance fitness (aPCA) (normalised: wild type 0, dead -1); higher = more abundant; growth selection in yeast, the domain comes from the species named. The following applies: Homo sapiens.
As for RELEAFAERFKQRRIKLGVDQADVGAALANLKIPGVGSLSQSTICRFESLTLSHNNMIALKPVLQAWLEEAE, the abundance fitness was -0.562 ± 0.19.
In the case of RELEAFAERFKQRRIKLGVTQADVGAALINLKIPGVGSLSQSTICRFESLTLSHNNMIALKPVLQAWLEEAE, the abundance fitness is -0.258 ± 0.25.
With RELEAFAERFKQRRIKLGVTQADVGAALANLKIAGVGSLSQSTICRFESLTLSHNNMIALKPVLQAWLEEAE, the abundance fitness is 0.029 ± 0.15.
With RELEAFAERFKQRRIKLGVTQADVGAALANYKIPGVGSLSQSTICRFESLTLSHNNMIALKPVLQAWLEEAE the figure was -0.228 ± 0.29; with RELEAFAERFKQRRIKLGVTQADVGAALANLKIPGVGSLSQSTICRFESLTLSHNNMIALKPVLQAWLEESE, -0.108 ± 0.039; with RELEAFAERFHQRRIKLGVTQADVGAALANLKIPGVGSLSQSTICRFESLTLSHNNMIALKPVLQAWLEEAE, -0.1 ± 0.17.
As to RELEAFAERFKQRRIKLGVTQADVSAALANLKIPGVGSLSQSTICRFESLTLSHNNMIALKPVLQAWLEEAE, the abundance fitness was -0.13 ± 0.13.
Take RELEAFAERFKQRRIKLGVTQADVGAALANLKIPGVGSLSQSTICRFESLTLSHNNMIALKPMLQAWLEEAE: the abundance fitness is -0.085 ± 0.093.
On to RELEAFAERFKQRRIKLGVTQADVGAALANLKIPGVGSLSQSTICRFESLTLSHNNMIALKPPLQAWLEEAE, for which the abundance fitness is -0.161 ± 0.087.
Regarding RELEAFAERFKQRRIKLEVTQADVGAALANLKIPGVGSLSQSTICRFESLTLSHNNMIALKPVLQAWLEEAE, the abundance fitness is -0.514 ± 0.14.
Consider RELEAFAERFKQRRIKLGVTQADVGAALANLKIPGVGSLSQSTICRFEHLTLSHNNMIALKPVLQAWLEEAE, for which the abundance fitness was -0.033 ± 0.096.
The figure for RELEAFAERFKQRRIKLGVTQADVGAALANLKIPGVGSLSQSTICRFESRTLSHNNMIALKPVLQAWLEEAE is 0.053 ± 0.03; for RELEAFAERFKQRRIKLGVTQADVGAALANLKIPGVGSLSQSTIWRFESLTLSHNNMIALKPVLQAWLEEAE it is -0.234 ± 0.32; for RELEWFAERFKQRRIKLGVTQADVGAALANLKIPGVGSLSQSTICRFESLTLSHNNMIALKPVLQAWLEEAE it is -0.379 ± 0.14.
RKLEAFAERFKQRRIKLGVTQADVGAALANLKIPGVGSLSQSTICRFESLTLSHNNMIALKPVLQAWLEEAE: the abundance fitness is -0.121 ± 0.26.
The figure for RELEAFAERFKQRRIKLGVTQADVGAALANLKLPGVGSLSQSTICRFESLTLSHNNMIALKPVLQAWLEEAE is 0.062 ± 0.045; for RELEAFAERFKQRRIKLGVTQADVGAALANLKIPGVGSLHQSTICRFESLTLSHNNMIALKPVLQAWLEEAE it is -0.013 ± 0.22; for RELEAFAERFKQRRIKLGVTQADVGAALANLKIPGVGSLSQSTICKFESLTLSHNNMIALKPVLQAWLEEAE it is 0.055 ± 0.074.
As for RELEAFAERFKQRRIKLGVTQADVGAALANLKIPGVGSLSQSTICRFESLTLSHNNMIALKPVLVAWLEEAE, the abundance fitness is -0.085 ± 0.21.
For RELEAFAERFKQRRIKLGVTQADVGAALANLKIPGVGSLSQSTICRFESLTLSHNNMIALKPVLQAWLEEAD, the abundance fitness is -0.111 ± 0.042.
On to RELEAFAERFKQRRIKLGVTQADVGAALANLKIPGVGSLSQSTICRFESLTLSHNNMIALKPVLQAWLEEAF, for which the abundance fitness is -0.63 ± 0.043.
Consider RELEAFAERFKQRRIKLGVTKADVGAALANLKIPGVGSLSQSTICRFESLTLSHNNMIALKPVLQAWLEEAE, for which the abundance fitness is -0.285 ± 0.13.
Regarding RELEAFAGRFKQRRIKLGVTQADVGAALANLKIPGVGSLSQSTICRFESLTLSHNNMIALKPVLQAWLEEAE, the abundance fitness was -0.098 ± 0.051.
For the variant RELEAFAERFKQRRIKLGVTQADVGAALANLKIPGVGSLSQSTICRFESLTLSHYNMIALKPVLQAWLEEAE, the abundance fitness is -0.161 ± 0.2.
In the case of RELEAFAERFKQRRIKFGVTQADVGAALANLKIPGVGSLSQSTICRFESLTLSHNNMIALKPVLQAWLEEAE, the abundance fitness is -0.405 ± 0.12.
The figure for RELEAFEERFKQRRIKLGVTQADVGAALANLKIPGVGSLSQSTICRFESLTLSHNNMIALKPVLQAWLEEAE is -0.893 ± 0.082.
As for RELEAFAERFKQRRIKLGVTQADVGAALANLKIPGVGILSQSTICRFESLTLSHNNMIALKPVLQAWLEEAE, the abundance fitness is -0.017 ± 0.042.
Take RELEAFAERFKQRRIKLGVTQADVGAALANLKIPGVGQLSQSTICRFESLTLSHNNMIALKPVLQAWLEEAE: the abundance fitness came out at 0.029 ± 0.03.
Turning to RELEAFAERFKQRRIKLGVTQADVGAALANLKIPNVGSLSQSTICRFESLTLSHNNMIALKPVLQAWLEEAE, the abundance fitness was -0.121 ± 0.052.
With RELEAFAERFKQRRIKLGVTQADMGAALANLKIPGVGSLSQSTICRFESLTLSHNNMIALKPVLQAWLEEAE, the abundance fitness was -0.301 ± 0.041.
Take RELEAFAERFKQRRIKLGVTQADVGAALANLKIPGVGSLSQSTICRFESLTLSHNIMIALKPVLQAWLEEAE: the abundance fitness is -0.157 ± 0.21.
RELEAFAERFKQRRIDLGVTQADVGAALANLKIPGVGSLSQSTICRFESLTLSHNNMIALKPVLQAWLEEAE: the abundance fitness was -0.132 ± 0.32.
As to RELEAFAERFKQRRIKLGVTQADVGAALANLKIPGVGSLSQSTICRFESLTLSHNNSIALKPVLQAWLEEAE, the abundance fitness was -0.156 ± 0.14.
As to RELEAFAERFKQRRNKLGVTQADVGAALANLKIPGVGSLSQSTICRFESLTLSHNNMIALKPVLQAWLEEAE, the abundance fitness was -0.147 ± 0.13.
On to RELEAFAECFKQRRIKLGVTQADVGAALANLKIPGVGSLSQSTICRFESLTLSHNNMIALKPVLQAWLEEAE, for which the abundance fitness is -0.141 ± 0.1.
Consider RELEAFAERFKQRRIKLGVTQADVGAALANLKIPGVGSLSQSSICRFESLTLSHNNMIALKPVLQAWLEEAE, for which the abundance fitness is -0.2 ± 0.055.
For the variant RELEAFAERFKQRRIKLGVTQADVGAALANLKIPGVGSLSQSLICRFESLTLSHNNMIALKPVLQAWLEEAE, the abundance fitness is -0.012 ± 0.042.
Consider RELEAFAERFKLRRIKLGVTQADVGAALANLKIPGVGSLSQSTICRFESLTLSHNNMIALKPVLQAWLEEAE, for which the abundance fitness is -0.066 ± 0.032.
